Experimental data: patent US4587340A, “Biopterin analogs” (Burroughs Wellcome Co., priority 1984, dated 1986)

Experiments:
[1] = tested on: C[C@H](O)[C@H](O)[C@H]1CNc2nc(N)[nH]c(=O)c2N1; test: purified protein, by the assay type
[2] = tested on: COCC1CNc2nc(N)[nH]c(=O)c2N1; test: Tyrosine hydroxylase cofactor assay; format: biochemical
Procedure: Tyrosine hydroxylase was partially purified through a 25-45% ammonium sulfate fraction. […] The enzyme was assayed by a modification of the method of Nagatsu, T., Levitt, M., and Udenfriend, S. (Anal. Biochem. 9, 122, (1964)) where the Dowex chromatography step was replaced by a charcoal extraction.

Sequence of Tyrosine hydroxylase (Homo sapiens) (chain, as listed by the source): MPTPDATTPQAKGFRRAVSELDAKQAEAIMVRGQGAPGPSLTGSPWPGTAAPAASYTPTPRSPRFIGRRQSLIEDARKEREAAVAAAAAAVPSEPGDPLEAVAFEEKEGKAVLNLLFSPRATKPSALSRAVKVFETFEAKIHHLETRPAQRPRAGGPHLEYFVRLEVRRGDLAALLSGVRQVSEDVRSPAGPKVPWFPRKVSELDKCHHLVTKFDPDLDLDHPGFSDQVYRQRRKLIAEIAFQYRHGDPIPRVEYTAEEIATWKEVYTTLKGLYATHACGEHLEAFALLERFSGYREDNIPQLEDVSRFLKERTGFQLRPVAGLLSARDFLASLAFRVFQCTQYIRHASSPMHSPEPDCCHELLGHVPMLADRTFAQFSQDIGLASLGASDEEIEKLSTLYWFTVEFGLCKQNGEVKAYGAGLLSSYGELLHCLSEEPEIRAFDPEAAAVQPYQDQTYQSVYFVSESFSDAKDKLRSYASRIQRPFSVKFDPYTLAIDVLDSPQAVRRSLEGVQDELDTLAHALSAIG

Tyrosine hydroxylase (Homo sapiens)
Km [1]: 110 µM
Km [2]: 65 µM
